Data from US7189689.

T1: lecithin:cholesterol acyltransferase (LCAT), purified from human plasma (human, UniProt P04180 25-440)
T1 sequence (looked up): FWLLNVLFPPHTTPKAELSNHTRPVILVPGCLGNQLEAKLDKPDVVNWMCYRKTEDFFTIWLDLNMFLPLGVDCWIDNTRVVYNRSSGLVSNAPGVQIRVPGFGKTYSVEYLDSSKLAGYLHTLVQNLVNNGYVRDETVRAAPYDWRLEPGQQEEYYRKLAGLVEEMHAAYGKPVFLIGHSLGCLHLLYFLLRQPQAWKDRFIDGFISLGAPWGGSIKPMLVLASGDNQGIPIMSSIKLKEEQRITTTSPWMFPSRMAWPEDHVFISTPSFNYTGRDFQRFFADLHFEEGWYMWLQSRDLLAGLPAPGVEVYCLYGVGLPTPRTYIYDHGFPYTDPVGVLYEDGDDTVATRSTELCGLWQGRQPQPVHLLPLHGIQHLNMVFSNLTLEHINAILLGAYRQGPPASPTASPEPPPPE

B1: peptide 242 (peptide)
peptide: EWLEAFYKKVLEKLKELF
B2: peptide 237 (peptide)
peptide: DWFKAFYDKVFEKFKEFF
B3: peptide 247 (peptide)
peptide: EWLKAFYKKVLEKLKELF
B4: peptide 241 (peptide)
peptide: DWLKAFYDKVFEKFKEFF
B5: peptide 244 (peptide)
peptide: EWLKAFYEKVLEKLKELF
B6: peptide 245 (peptide)
peptide: EWLKAEYEKVEEKLKELF
B7: peptide 246 (peptide)
peptide: EWLKAEYEKVLEKLKELF
B8: peptide 243 (peptide)
peptide: DWFKAFYDKFFEKFKEFF

Target: T1, lecithin:cholesterol acyltransferase …
Assay: cell-based or functional assay

ACTIVITY (%) LCAT [%] | Binder
7 | B1
11 | B2
3 | B3
8 | B4
5 | B5
4 | B6
4 | B7
5 | B8
